Columns and labels:
[1] = biological target: T1, MYORG (myogenesis-regulating glycosidase) (Homo sapiens, UniProt Q6NSJ0)
T1 sequence (Q6NSJ0 80-714): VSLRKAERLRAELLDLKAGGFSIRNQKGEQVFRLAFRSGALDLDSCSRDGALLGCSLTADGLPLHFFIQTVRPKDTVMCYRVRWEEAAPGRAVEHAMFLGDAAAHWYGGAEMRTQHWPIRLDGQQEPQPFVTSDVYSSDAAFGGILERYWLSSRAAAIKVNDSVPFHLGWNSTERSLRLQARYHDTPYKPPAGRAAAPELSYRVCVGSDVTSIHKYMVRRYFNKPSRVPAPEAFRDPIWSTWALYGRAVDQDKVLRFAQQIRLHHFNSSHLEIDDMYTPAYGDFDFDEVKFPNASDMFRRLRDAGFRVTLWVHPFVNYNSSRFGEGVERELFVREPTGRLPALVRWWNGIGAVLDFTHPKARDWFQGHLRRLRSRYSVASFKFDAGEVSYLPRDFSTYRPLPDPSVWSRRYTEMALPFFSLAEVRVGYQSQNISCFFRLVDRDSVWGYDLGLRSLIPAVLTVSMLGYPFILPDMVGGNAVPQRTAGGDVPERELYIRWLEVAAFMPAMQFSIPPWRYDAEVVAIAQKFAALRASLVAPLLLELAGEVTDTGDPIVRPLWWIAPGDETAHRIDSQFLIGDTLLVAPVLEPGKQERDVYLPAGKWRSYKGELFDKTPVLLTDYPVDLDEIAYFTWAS

[2] = biological target: T1, MYORG (myogenesis-regulating glycosidase); experiment: ITC; crystal structure ([…] Å soak); thermal shift (ΔTm […] °C); inhibition of 4MU-Gal hydrolysis; assay type: binding; set-up: residues 80–714 (MYORGGH31)
[3] = biological target: myogenesis-regulating glycosidase (MYORG) residues 80-714, glycosylated (human); experiment: SEC-MALS; SEC-MALLS; Superdex S200 10/300 GL in 20 mM HEPES (pH 7.5), 200 mM NaCl; ambient temperature; 100 ul of 3 mg/ml MYORG injected; 0.5 ml/min
[4] = biological target: myogenesis-regulating glycosidase (MYORG) residues 80-714, deglycosylated with EndoH (human); experiment: as above
[5] = substrate: OC[C@H]1O[C@H](O[C@H]2[C@H](O)[C@@H](O)C(O)O[C@@H]2CO)[C@H](O)[C@@H](O)[C@H]1O; experiment: Michaelis–Menten kinetics with purified enzyme (glucose oxidase/HRP paired-enzyme assay); KM; assay type: biochemical, Homo sapiens; conditions: active site, −[…] and +[…] subsites

## Cc1cc(=O)oc2cc(O[C@H]3O[C@H](CO)[C@H](O)[C@H](O)[C@H]3O)ccc12 [4MU-Gal]
[1]
  fluorogenic hydrolysis by purified enzyme; kcat/KM: 434.8 ± 3.82 M⁻¹ min⁻¹

## OC[C@H]1NC[C@H](O)[C@@H](O)[C@H]1O [DGJ, deoxygalactonojirimycin]
[2]
  Kd: 1330 ± 450 nM

## myogenesis-regulating glycosidase (MYORG) residues 80-714, glycosylated (domain or fragment)
[3]
  stoichiometry N: 2

## myogenesis-regulating glycosidase (MYORG) residues 80-714, deglycosylated with EndoH (domain or fragment)
[4]
  stoichiometry N: 2

B1: MYORG (myogenesis-regulating glycosidase) (Homo sapiens) (protein)
chain: T1 sequence (Q6NSJ0 80-714)
notes: residues 80–714 (MYORGGH31)
[5]
  Km: 980 ± 7 µM
